Kd and stoichiometry N (αS monomer units per Hsc70 molecule) data for 2 substances are collected here from publication PMC8516981.

Assay [1] deals with α-synuclein (αS) fibrils (human) (UniProt P37840). Nature of the assay: microfluidic diffusional sizing; in solution; DnaJB1 or Apg2 alone with αS fibrils (concentrations as monomer equivalents); 50 mM HEPES-KOH pH 7.5, 50 mM KCl, 5 mM MgCl2, 2 mM DTT.
Assay [2] shares this target. Nature of the assay: microfluidic diffusional sizing; in solution; labelled Hsc70 with αS fibrils (concentrations as monomer equivalents); 50 mM HEPES-KOH pH 7.5, 50 mM KCl, 5 mM MgCl2, 2 mM DTT; in the presence of ATP and DnaJB1.
Assay [3] has the same target. Nature of the assay: microfluidic diffusional sizing; in solution; labelled Hsc70 with αS fibrils (concentrations as monomer equivalents); 50 mM HEPES-KOH pH 7.5, 50 mM KCl, 5 mM MgCl2, 2 mM DTT; in the presence of ATP.

Sequence of heat shock cognate Hsc70 (HSPA8) (P11142 whole entry): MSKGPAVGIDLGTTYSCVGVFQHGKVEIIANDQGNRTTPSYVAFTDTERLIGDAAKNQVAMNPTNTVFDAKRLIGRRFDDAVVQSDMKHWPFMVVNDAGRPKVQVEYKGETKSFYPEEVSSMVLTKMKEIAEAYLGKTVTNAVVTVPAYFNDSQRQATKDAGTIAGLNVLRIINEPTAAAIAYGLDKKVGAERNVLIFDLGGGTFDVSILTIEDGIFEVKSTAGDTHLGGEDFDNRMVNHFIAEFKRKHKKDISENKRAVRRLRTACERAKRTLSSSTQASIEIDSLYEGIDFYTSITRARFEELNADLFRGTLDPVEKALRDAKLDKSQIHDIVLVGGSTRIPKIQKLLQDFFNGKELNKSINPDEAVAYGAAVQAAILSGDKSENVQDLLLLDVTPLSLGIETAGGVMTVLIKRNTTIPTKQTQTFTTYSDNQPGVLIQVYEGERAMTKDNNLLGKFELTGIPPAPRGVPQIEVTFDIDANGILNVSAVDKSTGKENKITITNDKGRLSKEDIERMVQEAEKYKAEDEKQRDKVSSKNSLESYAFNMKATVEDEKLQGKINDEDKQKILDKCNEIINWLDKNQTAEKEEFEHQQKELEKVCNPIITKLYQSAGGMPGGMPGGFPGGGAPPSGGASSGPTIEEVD
Sequence of DnaJB1 (Hsp40 class B J-protein) (P25685 whole entry): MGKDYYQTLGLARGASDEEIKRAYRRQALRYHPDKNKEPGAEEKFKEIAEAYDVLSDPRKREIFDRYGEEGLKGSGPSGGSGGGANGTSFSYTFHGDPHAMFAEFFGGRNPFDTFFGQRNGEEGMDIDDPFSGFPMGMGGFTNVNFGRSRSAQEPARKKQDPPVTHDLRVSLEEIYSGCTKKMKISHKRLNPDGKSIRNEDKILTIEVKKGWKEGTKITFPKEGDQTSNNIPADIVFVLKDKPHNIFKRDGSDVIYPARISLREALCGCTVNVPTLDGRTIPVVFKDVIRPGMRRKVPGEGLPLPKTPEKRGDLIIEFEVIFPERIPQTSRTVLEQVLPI

“DnaJB1 (Hsp40 class B J-protein) (from UniProt P25685 1-340) (natural protein)”: the Kd (usually the equilibrium constant for the complex coming apart) in assay [1] is 246 nM.

On to “heat shock cognate Hsc70 (HSPA8) (from UniProt P11142 1-646) (natural protein)”, for which the Kd in assay [2] was determined as 47.5 nM. Besides, in assay [3], the Kd stood at 139 nM and the stoichiometry N (αS monomer units per Hsc70 molecule) worked out at 5.3.
